Key:
[1] = Binding of ^125I-labeled GFLs to heparin-sepharose column, step NaCl elution
Procedure: GFL iodination was performed as described (Lindahl et al., 2001). Heparin-sepharose column (Amersham Biosciences) chromatography was performed to assess GFL binding to heparin. GDNF, ARTN, NRTN and PSPN were purchased from PeproTech, Ltd. or R&D Systems, Inc. GFLs were enzymatically labeled with carrier-free [^125I]NaI (Amersham Biosciences) by the lactoperoxidase method to a specific activity of 100000-200000 cpm/ng as described elsewhere (Lindahl et al., 2001). 15000-20000 cpm of iodinated GFLs, together with 10 μg of the same unlabeled protein as a carrier, were injected into a 1 ml heparin-sepharose column (Amersham Biosciences) in phosphate buffer pH 7.2 containing 100 mM NaCl and 10 mg/ml of BSA. After washing with 5 volumes of the same buffer, iodinated GFLs were eluted from the column by step elution (2 ml) with increasing NaCl concentration. The resulting fractions were counted on Rackbeta 1214 (LKB/Wallac) scintillation counter.

[2] = SPR (IAsys): heparin interaction with GFLs cuvette; type: binding; details: GFLs cuvette
Procedure: (§1) The affinities of GFLs for heparin and heparin-like molecules (e.g. syndecan-3) were determined by plasmon surface resonance using the IAsys system (Affinity Sensors, Cambridge, UK). Planar aminosilane cuvettes (Affinity Sensors) were used for protein coupling to avoid problems with mass transport, which occur frequently with matrix surfaces. In the initial approach, heparin-BSA was immobilized to the cuvette surface using the manufacturer's instructions and different ligand concentrations were used to determine association (ka) and dissociation (kdis) rates using the IAsys Fastfit software. The dissociation constant Kd was determined from the binding dynamics as […], or from equilibrium response (R) using a simple Langmuir fit: R=(Rmax*C)/(Kd+C), where C is the ligand concentration. […] The dissociation constants were determined from binding dynamics and equilibrium response. The same cuvettes were used to test binding of heparan sulfate proteoglycan syndecan-3, which was purified as an ectodomain from early postnatal rat brains by HB-GAM affinity chromatography (Raulo et al., 1994).
(§2) Binding was analyzed using IAsys cuvettes with immobilized heparin-BSA or GFLs. The dissociation constant Kd was determined from dynamics of association and dissociation (Kd=kdis/ka), or from equilibrium response R (R=(Rmax*C)/(Kd+C), where C is ligand concentration).

[3] = target: T1, syndecan-3 ectodomain (Rattus norvegicus, UniProt P33671); experiment: SPR (IAsys): syndecan-3 ectodomain interaction with GFLs cuvette; type: binding; details: syndecan-3 ectodomain in solution
T1 construct: purified as an ectodomain from early postnatal rat brains; from tissue; host or cells: early postnatal rat brain
T1 sequence (P33671 45-387 limits assumed): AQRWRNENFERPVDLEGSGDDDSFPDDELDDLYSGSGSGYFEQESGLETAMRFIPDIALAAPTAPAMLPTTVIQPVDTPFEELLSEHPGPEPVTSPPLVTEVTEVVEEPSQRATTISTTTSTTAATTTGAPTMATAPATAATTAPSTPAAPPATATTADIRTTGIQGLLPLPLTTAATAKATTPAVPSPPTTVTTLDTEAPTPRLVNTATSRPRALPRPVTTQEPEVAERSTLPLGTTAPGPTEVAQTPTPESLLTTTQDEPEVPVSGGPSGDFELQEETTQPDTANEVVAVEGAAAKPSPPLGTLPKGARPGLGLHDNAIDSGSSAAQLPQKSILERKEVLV
Procedure: as §1, §2

[4] = test system: SHEP cells; experiment: SHEP cell adhesion and spreading assay on immobilized proteins; type: cell-based, human; details: protein immobilized on plastic microplate
Procedure: Cell adhesion assays were essentially performed as described elsewhere (Weinacker et al., 1994). To prepare protein-coated surfaces the protein of interest (10 μg/ml in PBS) was applied to 96-well ELISA (Greiner) plates or to glass cover slips for 12-18 hours at +4° C. After incubation, the surfaces were washed with PBS and blocked with 1% globulin-free BSA for two hours. Some GDNF coated surfaces were incubated with 20 μg/ml of G-90 (Amgen) GDNF function-blocking antibodies (Xu et al., 1998) for 2 hours at room temperature.
Subconfluent SHEP cells were harvested in PBS supplemented with 10 mM EDTA for 5 min at 37° C. Cells were washed with incubation buffer (RPMI 1640, 0.2% BSA, 15 mM HEPES pH 7.2) and 10000-40000 cells/well plated on the protein coated surface. Plates were centrifuged for 5 min at 10 g and incubated for one hour at 37° C. in 5% CO2. After incubation cells were washed with PBS, fixed with methanol supplemented with crystal violet for 15 min at room temperature and washed again with PBS. The remaining cells were counted using a Leica DMIRB inverted microscope with 10× objective in 5 fields per well.
Some cells were pretreated with heparinase III, PI-PLC (see above), 0.3 U/ml chodroitinase ABC for one hour at 37° C., 5% CO2, or with 20 μg/ml of NCAM blocking antibodies (AB5032, Chemicon Inc.) for 15-30 min on ice.
After one hour of incubation in serum-free medium unattached cells were removed by washing. The remaining cells were stained and counted on Leica DMIRB inverted microscope with a 10× objective in 5 fields per well and the resulting cell number was calculated for the whole well.
Live SHEP cells spreading on immobilized GDNF were imaged for 20 minutes using the Till imaging system with an Imago-QE digital camera (Till Photonics) equipped with heating (+37° C.) and CO2 supply (5%) chambers.

[5] = test system: Src family kinase; experiment: Src kinase phosphorylation assay in SHEP cells; type: cell-based, human; details: SHEP cells plated on immobilized protein
Procedure: SHEP cells from 10-cm plates were harvested as described above and plated on GDNF-coated 35-mm Petri dishes. Cells were allowed to sediment for 10 min at room temperature and then transferred to 37° C. for additional 15 min. Cells were lysed in the lysis buffer (TBS, 1% Triton X-100, 0.5% deoxycholic acid, 0.1% SDS, 10% glycerol, 1 mM Na3VO4, 1 mM PMSF and Complete protease inhibitor mixture). Lysates were analyzed on 10% SDS-PAGE and western blots were stained with anti-pY^418Src or anti-pp60Src antibodies (Biosource). Some cells were pretreated with heparinase III or PI-PLC.

[6] = test system: E15 mouse cortical neurons; experiment: Cortical neurons migration assay (transfilter); type: cell-based; details: 16 hours
Procedure: Cortical lobes from E15 mouse brains were dissected under a stereomicroscope and dissociated using a 20 G needle and a syringe in DMEM containing 10% FCS. The cortical preparation was spun down at 1000 rpm for 5 min and the pellet was washed with culture medium containing serum. The pellet was carefully resuspended and the preparation was allowed to sediment for five more minutes before the cleared supernatant was collected. The cells in the supernatant were allowed to recover in serum-containing DMEM for 30-60 min. Recovered cells were washed once with the assay medium (DMEM with 10 mg/ml BSA, L-glutamine and antibiotics) and resuspended in the same medium.
Transwell filters (Costar) with 12-μm pore size or polycarbonate filters saturated with 100 μg/ml poly-L-lysine were coated with GDNF or ΔN-GDNF in 1 μM, 10 μM and 100 μM concentrations overnight at 4° C. and equilibrated with assay medium 30 min in +37° C. incubator prior to use. The spontaneous and random migratory activity of neural cells was controlled with uncoated filters.
Embryonic cortical cells were plated on the filters at 150000 cells per filter and left to migrate for 16 hours. […] The number of cells that had migrated to the coated surface of the filters was calculated using the inverted light microscope Olympus IX71.

B1: GDNF: Glial cell line-derived neurotrophic factor, secreted growth factor, GDNF family ligand (protein)
chain: SPDKQMAVLPRRERNRQAAAANPENSRGKGRRGQRGKNRGCVLTAIHLNVTDLGLGYETKEELIFRYCSGSCDAAETTYDKILKNLSRNRRLVSDKVGQACCRPIAFDDDLSFLDDNLVYHILRKHSAKRCGCI
- NaCl concentration at elution from heparin-sepharose column ([1]; ^125I-GFLs, step NaCl gradient): 0.75 to 1 M
- binding to heparin-sepharose column ([1]; ^125I-labeled GFLs): bind strongly to heparin
- ka (×10^−5) (M^−1s^−1) ([2]; heparin in solution): 15 (×10^−5) M^−1s^−1
- kdis ([2]; heparin in solution): 0.034 s⁻¹
- Kd = kdis/ka ([2]; from dynamics): 22.7 ± 2.7 nM
- Kd ([2]; from equilibrium response, read-out: Kd (equilibrium)): 12.3 ± 3.4 nM
- ka (×10^−5) (M^−1s^−1) [3]: 13 ± 2 (×10^−5) M^−1s^−1
- adherence and spreading of SHEP cells on immobilized protein [4]: induced adherence and spreading
- activation of Src family kinases (pY^418Src Western blot) [5]: induces HSPG-dependent activation of Src family kinases
- migration of syndecan-3-deficient embryonic cortical neurons ([6]; filters coated with GDNF): strongly impaired
- migration of wild type embryonic cortical cells ([6]; filters coated with protein): stimulated massive migration

From patent publication US8034572B2, “Receptor for GDNF family ligands” (priority 2006, dated 2011)
